From PMC10767740

Columns and labels:
[1] = test system: TDP-43 native oligomer (NA-O); experiment: SPR; details: protein immobilized on CM5, SPR Biacore 8K, CM5 chip, protein amine-coupled (30 ug/mL in NaAc pH 4.0), TG12 7.8-8000 nM in 1x PBS + 0.02% Tween-20, 120 s association and dissociation, 1:1 …
TDP-43 monomer (TDP-M) = experiment: SPR; details: protein immobilized on CM5; SPR Biacore 8K, CM5 chip, protein amine-coupled (30 ug/mL in NaAc pH 4.0); TG12 7.8-8000 nM in 1x PBS + 0.02% Tween-20; 120 s association and dissociation; 1:1 …
Chain of TDP-43 monomer (TDP-M) (chain, as listed by the source): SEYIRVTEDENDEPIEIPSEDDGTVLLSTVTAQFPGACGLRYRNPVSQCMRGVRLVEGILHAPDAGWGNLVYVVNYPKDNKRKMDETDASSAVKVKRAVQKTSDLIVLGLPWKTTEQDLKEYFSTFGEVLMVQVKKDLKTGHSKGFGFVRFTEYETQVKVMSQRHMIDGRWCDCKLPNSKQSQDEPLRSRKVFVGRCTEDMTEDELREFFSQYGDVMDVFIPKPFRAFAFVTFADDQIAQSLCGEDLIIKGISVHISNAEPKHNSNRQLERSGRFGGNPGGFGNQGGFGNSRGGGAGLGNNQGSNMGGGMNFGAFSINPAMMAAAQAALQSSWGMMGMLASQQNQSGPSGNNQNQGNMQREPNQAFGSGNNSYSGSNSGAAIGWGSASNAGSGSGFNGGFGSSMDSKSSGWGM

TG12 was tested. Which Kd [1] did it give?
The Kd was 125 nM.

What about the Kd (TDP-43 monomer (TDP-M)) of the same substance?
The Kd was 155 nM.
